Experimental data taken from patent publication US20110014669A1, “Production of 1,4 Butanediol in a Microorganism” (Microbia, Inc., priority 2009, published 2011).

B1: YeaUEc: Enzyme candidate for BDO biosynthetic pathway step A5, SEQ ID NO. 59 (protein, listed as Escherichia coli)
chain: MMKTMRIAAIPGDGIGKEVLPEGIRVLQAAAERWGFALSFEQMEWASCEYYSHHGKMMPDDWHEQLSRFDAIYFGAVGWPDTVPDHISLWGSLLKFRREFDQYVNLRPVRLFPGVPCPLAGKQPGDIDFYVVRENTEGEYSSLGGRVNEGTEHEVVIQESVFTRRGVDRILRYAFELAQSRPRKTLTSATKSNGLAISMPYWDERVEAMAENYPEIRWDKQHIDILCARFVMQPERFDVVVASNLFGDILSDLGPACTGTIGIAPSANLNPERTFPSLFEPVHGSAPDIYGKNIANPIATIWAGAMMLDFLGNGDERFQQAHNGILAAIEEVIAHGPKTPDMKGNATTPQVADAICKIILR
B2: PoxBEc: Enzyme candidate for BDO biosynthetic pathway step A5, SEQ ID NO. 60 (protein, listed as Escherichia coli)
chain: MKQTVAAYIAKTLESAGVKRIWGVTGDSLNGLSDSLNRMGTIEWMSTRHEEVAAFAAGAEAQLSGELAVCAGSCGPGNLHLINGLFDCHRNHVPVLAIAAHIPSSEIGSGYFQETHPQELFRECSHYCELVSSPEQIPQVLAIAMRKAVLNRGVSVVVLPGDVALKPAPEGATMHWYHAPQPVVTPEEEELRKLAQLLRYSSNIALMCGSGCAGAHKELVEFAGKIKAPIVHALRGKEHVEYDNPYDVGMTGLIGFSSGFHTMMNADTLVLLGTQFPYRAFYPTDAKIIQIDINPASIGAHSKVDMALVGDIKSTLRALLPLVEEKADRKFLDKALEDYRDARKGLDDLAKPSEKAIHPQYLAQQISHFAADDAIFTCDVGTPTVWAARYLKMNGKRRLLGSFNHGSMANAMPQALGAQATEPERQVVAMCGDGGFSMLMGDFLSVVQMKLPVKIVVFNNSVLGFVAMEMKAGGYLTDGTELHDTNFARIAEACGITGIRVEKASEVDEALQRAFSIDGPVLVDVVVAKEELAIPPQIKLEQAKGFSLYMLRAIISGRGDEVIELAKTNWLR
B3: LdcCEc: Enzyme candidate for BDO biosynthetic pathway step A5, SEQ ID NO. 62 (protein, listed as Escherichia coli)
chain: MNIIAIMGPHGVFYKDEPIKELESALVAQGFQIIWPQNSVDLLKFIEHNPRICGVIFDWDEYSLDLCSDINQLNEYLPLYAFINTHSTMDVSVQDMRMALWFFEYALGQAEDIAIRMRQYTDEYLDNITPPFTKALFTYVKERKYTFCTPGHMGGTAYQKSPVGCLFYDFFGGNTLKADVSISVTELGSLLDHTGPHLEAEEYIARTFGAEQSYIVTNGTSTSNKIVGMYAAPSGSTLLIDRNCHKSLAHLLMMNDVVPVWLKPTRNALGILGGIPRREFTRDSIEEKVAATTQAQWPVHAVITNSTYDGLLYNTDWIKQTLDVPSIHFDSAWVPYTHFHPIYQGKSGMSGERVAGKVIFETQSTHKMLAALSQASLIHIKGEYDEEAFNEAFMMHTTTSPSYPIVASVETAAAMLRGNPGKRLINRSVERALHFRKEVQRLREESDGWFFDIWQPPQVDEAECWPVAPGEQWHGFNDADADHMFLDPVKVTILTPGMDEQGNMSEEGIPAALVAKFLDERGIVVEKTGPYNLLFLFSIGIDKTKAMGLLRGLTEFKRSYDLNLRIKNMLPDLYAEDPDFYRNMRIQDLAQGIHKLIRKHDLPGLMLRAFDTLPEMIMTPHQAWQRQIKGEVETIALEQLVGRVSANMILPYPPGVPLLMPGEMLTKESRTVLDFLLMLCSVGQHYPGFETDIHGAKQDEDGVYRVRVLKMAG
B4: PanDEc: Enzyme candidate for BDO biosynthetic pathway step A5, SEQ ID NO. 61 (protein, listed as Escherichia coli)
chain: MIRTMLQGKLHRVKVTHADLHYEGSCAIDQDFLDAAGILENEAIDIWNVTNGKRFSTYAIAAERGSRIISVNGAAAHCASVGDIVIIASFVTMPDEEARTWRPNVAYFEGDNEMKRTAKAIPVQVA

test system: 5-hydroxy-2-oxopentanoate; assay: Enzyme assay, decarboxylase (step A5), aldehyde dehydrogenase linked reaction; assay type: biochemical; parameters: key: +: measureable activity detected in the assay; −: no measurable activity detected in the assay; conditions: BDO biosynthetic pathway step A5
Experimental: Enzyme expression and crude lysate preparation. The enzymatic activity of each candidate enzyme is evaluated, first in E. coli and subsequently in C. glutamicum. It will be apparent to one of skill in the art that the expression and lysate preparations may need to be modified depending on the host cell and recombinant gene of interest.
E. coli: E. coli strains transformed with expression clones, for example, pUC18 or MB4124 based clones having a medium strong constitutive promoter regulating the recombinant gene of interest, are grown aerobically in LB medium (Difco) containing the appropriate antibiotic(s). At an OD600 of 0.5, IPTG is added to a final concentration of 0.25 mM. The cultures are grown to a final OD600 of 1.5 at which time the cells are collected and harvested by centrifugation. Cell pellets are resuspended in BugBuster (Novagen) reagent containing benzonase and lysozyme. Alternatively, E. coli strains transformed with expression clones, are grown overnight aerobically at 37° C. in BHI containing the appropriate antibiotic(s). 300 μL of fresh overnight culture is used to inoculate 2.7 mL BHI containing 0.25 mM IPTG and the appropriate antibiotic. The cultures are grown aerobically for 4-5 hours at 37° C. at which time the cells are collected and harvested by centrifugation. Cell pellets are frozen at −80° C. for at least 15 minutes, then thawed and resuspended in BugBuster (Novagen) reagent. Lysis and lysate collection are performed according to the manufacturer's instructions and, for example, may involve use of a sonicator and/or French press. Cleared lysates are stored on ice until enzyme assays are performed.
C. glutamicum: C. glutamicum strains transformed with MB4124 expression clones containing the recombinant gene of interest are grown aerobically in BHI broth supplemented with the proper antibiotic(s). At an OD600 of 0.5, IPTG is added to a final concentration of 0.25 mM. The cultures are grown to a final OD600 of 1.5 at which time the cells are collected and harvested by centrifugation. The pellet is washed once in one volume of water and resuspended in lysis buffer (1.0 ml 1.0 M HEPES buffer, pH 7.5, 0.5 ml 1M KOH, 10 μl 0.5M EDTA, protease inhibitor cocktail, water to 5 ml; the final pH will vary depending on the individual enzyme being tested) and one volume of 0.1 mm acid washed glass beads. The mixture is repeatedly alternately vortexed and held on ice for 15 seconds, eight times. After centrifugation for 5 min at 4,000 rpm, the supernatant lysate is removed and respun for 20 min at 10,000 rpm. Alternatively, C. glutamicum strains transformed with MB4124 expression clones containing the recombinant gene of interest are grown aerobically overnight in BHI broth supplemented with the proper antibiotic(s). Five mL of fresh overnight culture is used to inoculate 200 mL BHI containing 0.25 mM IPTG and the appropriate antibiotic. The cultures are grown aerobically at 30° C. for 5-7 hours at which time the cells are collected and harvested by centrifugation at 4° C. The pellet is resuspended in 15 mL ice cold 39 mM KH2PO4, 61 mM K2HPO4, 0.5 M KCl and lysed using a BioSpec BeadBeater and following the manufacturer's instructions. The lysate is centrifuged at 16,000 RPM at 4° C. for 30 minutes and the supernatant retained on ice as the extract.
Protein Assays. Protein concentrations in lysates are determined according to the methods of Bradford et al. (Anal. Biochem. 72:248-254 [1976]) or by the method of Smith et al. (Anal. Biochem. 150(1):76-85 [1985]) and lysates are assayed according to the methods below.
Enzyme Assays. Enzyme assays are performed on the cell lysates prepared above. The activity for each recombinant enzyme is compared to a lysate from a vector only control culture which is generated in a fashion identical to the recombinant enzyme lysate. […]

| Molecule | Enzyme Assay |
| --- | --- |
| B1 | − |
| B2 | − |
| B3 | − |
| B4 | − |
